From patent US20220204643A1 (published 2022) come the findings set out here.

Holding throughout (experiment): protein array
In test [1] the target is T1, calcium and integrin binding 1, transcript variant b (human, UniProt Q99828 2-191).
T1 construct: on protein array; also called CIB1
T1 sequence: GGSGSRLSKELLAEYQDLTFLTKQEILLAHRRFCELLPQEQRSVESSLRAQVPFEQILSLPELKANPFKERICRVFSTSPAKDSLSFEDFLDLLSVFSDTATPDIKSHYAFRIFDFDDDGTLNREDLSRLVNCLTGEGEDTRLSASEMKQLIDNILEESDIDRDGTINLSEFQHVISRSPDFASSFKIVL

Test [2] deals with T2, C-X-C motif chemokine receptor 4, transcript variant 2 (human, UniProt P61073 1-352).
T2 construct: on protein array; also called CXCR4

The target of test [3] is T3, Long intergenic non-protein coding rna 242 (human, UniProt Q5T6M2 1-205).
T3 construct: on protein array; also called LINC00242
T3 chain: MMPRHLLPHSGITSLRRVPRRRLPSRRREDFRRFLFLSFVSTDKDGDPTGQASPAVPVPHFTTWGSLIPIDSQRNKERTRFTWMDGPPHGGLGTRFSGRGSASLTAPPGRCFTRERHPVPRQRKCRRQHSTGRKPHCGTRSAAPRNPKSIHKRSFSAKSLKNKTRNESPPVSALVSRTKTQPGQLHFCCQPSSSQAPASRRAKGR

Test [4] deals with T4, BCL2 associated athanogene 2 (human, UniProt O95816 2-211).
T4 construct: on protein array; also called BAG2

Test [5] addresses T5, HSPA (Hsp70) binding protein 1, transcript variant 2 (human, UniProt Q9NZL4 1-359).
T5 construct: on protein array; also called HSPBP1
T5 sequence: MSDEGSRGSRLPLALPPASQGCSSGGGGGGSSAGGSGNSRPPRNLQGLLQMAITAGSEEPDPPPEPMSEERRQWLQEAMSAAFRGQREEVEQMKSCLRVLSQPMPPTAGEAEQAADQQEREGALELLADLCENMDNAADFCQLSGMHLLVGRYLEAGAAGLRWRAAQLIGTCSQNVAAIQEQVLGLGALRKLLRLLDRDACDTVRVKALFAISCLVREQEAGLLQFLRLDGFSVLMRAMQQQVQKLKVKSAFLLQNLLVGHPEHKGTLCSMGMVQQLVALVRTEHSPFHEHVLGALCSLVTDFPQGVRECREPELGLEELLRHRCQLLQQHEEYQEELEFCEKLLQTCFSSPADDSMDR

Test [6] deals with T6, heat shock protein family A (Hsp70) member 2 (human, UniProt P54652 1-639).
T6 construct: on protein array; also called HSPA2

For test [7], the target named is T7, HAUS augmin like complex subunit 1, transcript variant 1 (human, UniProt Q96CS2 1-278).
T7 construct: on protein array; also called HAUS1
T7 sequence: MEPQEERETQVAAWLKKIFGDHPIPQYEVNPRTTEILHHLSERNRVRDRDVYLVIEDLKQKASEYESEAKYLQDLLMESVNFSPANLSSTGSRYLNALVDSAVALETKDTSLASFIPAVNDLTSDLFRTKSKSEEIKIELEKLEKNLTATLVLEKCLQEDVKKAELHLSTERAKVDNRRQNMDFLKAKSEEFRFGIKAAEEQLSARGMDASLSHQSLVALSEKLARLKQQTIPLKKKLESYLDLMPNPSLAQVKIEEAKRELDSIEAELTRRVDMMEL

Test [8] deals with T8, coiled-coil domain containing 74B, transcript variant 2 (human, UniProt Q96LY2 1-380).
T8 construct: on protein array; also called CCDC74B

Test [9] deals with T9, dual specificity phosphatase 12 (human, UniProt Q9UNI6 1-340).
T9 construct: on protein array; also called DUSP12

In test [10] the target is T10, actinin alpha 1, transcript variant 2 (human, UniProt P12814 1-892).
T10 construct: on protein array; also called ACTN1

Test [11] concerns the target T11, neural retina leucine zipper, transcript variant X4 (human, UniProt P54845 1-237).
T11 construct: on protein array; also called NRL

Test [12] concerns the target T12, Ankyrin repeat domain 20 family member a5, pseudogene (human, UniProt A0PJZ0 1-165).
T12 construct: on protein array; also called ANKRD20A5P

For test [13], the target named is T13, GRB10 interacting GYF protein 1, transcript variant X10 (human, UniProt O75420 1-1035).
T13 construct: on protein array; also called GIGYF1
T13 sequence: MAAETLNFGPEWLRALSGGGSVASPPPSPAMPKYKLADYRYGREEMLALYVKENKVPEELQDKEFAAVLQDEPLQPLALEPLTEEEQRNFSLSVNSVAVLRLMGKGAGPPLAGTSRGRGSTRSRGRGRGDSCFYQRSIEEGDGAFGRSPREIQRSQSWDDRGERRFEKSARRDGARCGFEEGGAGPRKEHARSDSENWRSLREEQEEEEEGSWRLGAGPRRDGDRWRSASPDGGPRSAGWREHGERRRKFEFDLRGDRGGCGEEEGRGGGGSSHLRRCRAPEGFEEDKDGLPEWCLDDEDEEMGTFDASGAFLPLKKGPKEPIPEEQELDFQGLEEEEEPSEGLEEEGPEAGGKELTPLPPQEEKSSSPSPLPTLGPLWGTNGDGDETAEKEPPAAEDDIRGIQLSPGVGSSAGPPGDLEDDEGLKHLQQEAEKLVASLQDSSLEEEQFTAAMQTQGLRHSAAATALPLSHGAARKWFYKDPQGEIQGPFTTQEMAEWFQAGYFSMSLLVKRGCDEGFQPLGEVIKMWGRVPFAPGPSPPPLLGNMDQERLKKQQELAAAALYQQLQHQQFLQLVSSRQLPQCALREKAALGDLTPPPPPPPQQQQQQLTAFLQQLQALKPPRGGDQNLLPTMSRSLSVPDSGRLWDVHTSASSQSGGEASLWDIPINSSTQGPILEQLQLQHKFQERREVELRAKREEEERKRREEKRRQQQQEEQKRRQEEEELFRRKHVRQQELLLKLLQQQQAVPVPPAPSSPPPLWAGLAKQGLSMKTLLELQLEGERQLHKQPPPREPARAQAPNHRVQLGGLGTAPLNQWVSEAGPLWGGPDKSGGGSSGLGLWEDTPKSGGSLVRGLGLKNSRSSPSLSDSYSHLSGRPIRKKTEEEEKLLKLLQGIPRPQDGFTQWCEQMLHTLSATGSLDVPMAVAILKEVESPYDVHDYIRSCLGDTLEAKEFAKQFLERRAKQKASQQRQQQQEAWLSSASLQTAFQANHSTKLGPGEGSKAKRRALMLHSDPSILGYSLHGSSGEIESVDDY

In test [14] the target is T14, Kirre like nephrin family adhesion molecule 1 (human, UniProt Q96J84 17-757).
T14 construct: on protein array
T14 sequence: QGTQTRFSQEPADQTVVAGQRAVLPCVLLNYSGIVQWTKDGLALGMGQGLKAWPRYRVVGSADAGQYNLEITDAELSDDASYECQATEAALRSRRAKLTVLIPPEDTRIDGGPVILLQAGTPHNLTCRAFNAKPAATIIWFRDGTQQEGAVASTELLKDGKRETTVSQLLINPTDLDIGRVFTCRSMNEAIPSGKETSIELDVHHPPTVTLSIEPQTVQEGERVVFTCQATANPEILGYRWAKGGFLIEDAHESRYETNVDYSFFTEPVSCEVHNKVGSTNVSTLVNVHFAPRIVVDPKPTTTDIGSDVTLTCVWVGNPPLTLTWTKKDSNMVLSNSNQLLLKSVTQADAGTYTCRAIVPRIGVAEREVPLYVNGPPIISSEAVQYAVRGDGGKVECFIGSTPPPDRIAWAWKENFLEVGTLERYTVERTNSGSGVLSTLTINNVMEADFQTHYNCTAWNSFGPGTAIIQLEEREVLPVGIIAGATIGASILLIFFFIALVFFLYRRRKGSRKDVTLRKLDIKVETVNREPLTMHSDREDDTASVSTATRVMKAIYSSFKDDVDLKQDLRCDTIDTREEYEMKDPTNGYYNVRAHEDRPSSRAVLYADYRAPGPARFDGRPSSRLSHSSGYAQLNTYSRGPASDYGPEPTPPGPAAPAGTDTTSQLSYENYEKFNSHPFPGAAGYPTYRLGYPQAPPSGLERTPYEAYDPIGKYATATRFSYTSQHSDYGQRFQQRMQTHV

For test [15], the target named is T15, killer cell lectin like receptor Cl, transcript variant 3 (human, UniProt P26715 1-233).
T15 construct: on protein array; also called KLRC1
T15 sequence (P26715 other isoform, or with tags, fused parts or gaps mutant limits assumed): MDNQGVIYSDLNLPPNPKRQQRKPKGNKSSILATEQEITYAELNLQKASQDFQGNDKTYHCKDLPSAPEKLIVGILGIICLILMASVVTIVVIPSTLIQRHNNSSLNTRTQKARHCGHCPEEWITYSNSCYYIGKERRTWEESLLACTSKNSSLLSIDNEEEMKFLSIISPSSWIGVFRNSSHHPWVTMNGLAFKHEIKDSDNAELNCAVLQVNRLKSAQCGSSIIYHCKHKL

T6 sequence (P54652 whole entry): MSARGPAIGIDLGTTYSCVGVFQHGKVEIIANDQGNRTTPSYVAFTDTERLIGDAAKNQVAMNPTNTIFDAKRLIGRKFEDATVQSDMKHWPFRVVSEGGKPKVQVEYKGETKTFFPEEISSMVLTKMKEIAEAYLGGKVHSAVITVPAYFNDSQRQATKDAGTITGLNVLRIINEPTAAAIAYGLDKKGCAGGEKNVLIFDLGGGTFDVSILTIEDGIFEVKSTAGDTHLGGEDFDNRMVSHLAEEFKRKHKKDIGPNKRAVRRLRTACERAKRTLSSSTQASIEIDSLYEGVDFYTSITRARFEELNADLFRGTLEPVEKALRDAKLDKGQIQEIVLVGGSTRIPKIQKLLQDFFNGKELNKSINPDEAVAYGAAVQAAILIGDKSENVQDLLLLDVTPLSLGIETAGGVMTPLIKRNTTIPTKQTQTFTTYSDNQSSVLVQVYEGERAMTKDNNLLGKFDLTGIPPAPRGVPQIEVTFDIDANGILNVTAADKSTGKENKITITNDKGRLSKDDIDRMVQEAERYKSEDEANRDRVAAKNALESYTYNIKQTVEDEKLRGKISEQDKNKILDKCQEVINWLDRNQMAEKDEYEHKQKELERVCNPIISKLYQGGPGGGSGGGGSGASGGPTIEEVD
T2 sequence (P61073 whole entry, change not shown): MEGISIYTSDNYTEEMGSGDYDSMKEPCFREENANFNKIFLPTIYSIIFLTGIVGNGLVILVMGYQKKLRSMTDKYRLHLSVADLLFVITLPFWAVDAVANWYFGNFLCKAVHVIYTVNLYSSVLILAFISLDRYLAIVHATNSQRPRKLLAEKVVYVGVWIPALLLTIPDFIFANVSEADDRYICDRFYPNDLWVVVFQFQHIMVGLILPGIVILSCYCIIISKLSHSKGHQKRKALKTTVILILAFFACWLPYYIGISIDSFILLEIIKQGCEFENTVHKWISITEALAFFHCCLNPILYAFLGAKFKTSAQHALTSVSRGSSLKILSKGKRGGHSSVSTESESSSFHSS
T8 sequence (Q96LY2 other isoform, or with tags, fused parts or gaps mutant limits assumed): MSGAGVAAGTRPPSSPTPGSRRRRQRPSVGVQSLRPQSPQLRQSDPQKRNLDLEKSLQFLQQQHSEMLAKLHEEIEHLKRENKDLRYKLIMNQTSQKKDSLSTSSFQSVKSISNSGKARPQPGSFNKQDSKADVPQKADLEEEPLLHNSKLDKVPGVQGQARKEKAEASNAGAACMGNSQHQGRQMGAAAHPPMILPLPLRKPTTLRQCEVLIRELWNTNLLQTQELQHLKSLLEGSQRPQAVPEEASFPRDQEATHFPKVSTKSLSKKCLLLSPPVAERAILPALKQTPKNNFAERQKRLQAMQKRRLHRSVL
T4 sequence (O95816 2-211 limits assumed): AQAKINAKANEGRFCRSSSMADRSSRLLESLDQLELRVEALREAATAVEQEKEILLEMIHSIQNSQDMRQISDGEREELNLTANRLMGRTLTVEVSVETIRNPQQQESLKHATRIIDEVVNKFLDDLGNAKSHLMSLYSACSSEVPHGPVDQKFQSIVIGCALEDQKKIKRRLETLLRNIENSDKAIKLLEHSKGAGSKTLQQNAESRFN
T9 sequence (Q9UNI6 whole entry): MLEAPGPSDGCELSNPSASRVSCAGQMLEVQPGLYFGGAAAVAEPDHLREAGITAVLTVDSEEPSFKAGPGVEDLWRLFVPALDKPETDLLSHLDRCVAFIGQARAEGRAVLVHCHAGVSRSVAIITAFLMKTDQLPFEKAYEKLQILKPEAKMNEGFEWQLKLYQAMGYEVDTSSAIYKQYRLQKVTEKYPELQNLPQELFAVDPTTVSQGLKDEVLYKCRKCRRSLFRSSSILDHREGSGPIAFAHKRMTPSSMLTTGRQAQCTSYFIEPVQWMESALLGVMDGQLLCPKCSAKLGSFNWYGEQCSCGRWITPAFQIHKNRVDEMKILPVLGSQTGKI
T10 sequence (P12814 whole entry, change not shown): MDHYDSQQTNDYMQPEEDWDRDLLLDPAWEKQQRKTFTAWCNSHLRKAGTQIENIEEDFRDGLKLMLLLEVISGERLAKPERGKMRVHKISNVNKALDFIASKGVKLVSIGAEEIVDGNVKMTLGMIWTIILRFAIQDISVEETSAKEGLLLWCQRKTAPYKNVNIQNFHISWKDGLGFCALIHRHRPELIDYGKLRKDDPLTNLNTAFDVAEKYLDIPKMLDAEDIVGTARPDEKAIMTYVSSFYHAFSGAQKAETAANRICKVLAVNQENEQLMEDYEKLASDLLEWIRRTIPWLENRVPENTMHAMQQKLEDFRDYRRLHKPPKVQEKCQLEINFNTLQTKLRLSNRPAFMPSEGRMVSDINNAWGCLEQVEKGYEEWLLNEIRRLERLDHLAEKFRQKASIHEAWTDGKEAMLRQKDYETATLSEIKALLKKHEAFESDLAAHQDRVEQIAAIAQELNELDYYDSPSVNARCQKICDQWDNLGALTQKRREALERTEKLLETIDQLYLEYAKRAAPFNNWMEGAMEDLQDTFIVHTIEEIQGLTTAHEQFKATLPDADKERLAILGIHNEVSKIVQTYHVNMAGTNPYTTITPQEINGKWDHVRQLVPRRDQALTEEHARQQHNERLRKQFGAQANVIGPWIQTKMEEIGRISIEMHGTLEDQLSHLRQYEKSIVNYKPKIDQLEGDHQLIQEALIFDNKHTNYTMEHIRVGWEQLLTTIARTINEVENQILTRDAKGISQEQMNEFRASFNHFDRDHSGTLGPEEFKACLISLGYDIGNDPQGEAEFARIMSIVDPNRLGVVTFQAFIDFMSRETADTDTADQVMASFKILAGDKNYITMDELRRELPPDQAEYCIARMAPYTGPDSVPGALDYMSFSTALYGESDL
T11 sequence (P54845 whole entry, change not shown): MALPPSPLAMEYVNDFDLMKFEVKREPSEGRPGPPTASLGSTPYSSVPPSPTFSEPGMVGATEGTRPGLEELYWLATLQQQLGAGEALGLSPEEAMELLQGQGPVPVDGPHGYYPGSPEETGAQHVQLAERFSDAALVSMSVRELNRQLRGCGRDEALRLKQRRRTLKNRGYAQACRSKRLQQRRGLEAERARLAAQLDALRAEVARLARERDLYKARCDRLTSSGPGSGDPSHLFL
T12 sequence (A0PJZ0 whole entry, the tested form may be a part): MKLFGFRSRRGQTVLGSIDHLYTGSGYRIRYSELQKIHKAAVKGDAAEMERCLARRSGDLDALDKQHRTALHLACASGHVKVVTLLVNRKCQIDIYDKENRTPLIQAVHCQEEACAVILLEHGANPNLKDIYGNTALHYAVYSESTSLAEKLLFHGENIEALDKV

B1: TSTO1001 (antibody, V domains shown)
VH: VVQLLESGGGLVHPGGSLRISCAASEFTFSAYAMTWVRQAPGKGLEWVSAISGSGGRTYYADSLKGRFTISRDNSKHTLYLLMNSLRVEDTAVYYCASRYRSPSGAFDIWGQGTLVTVSS
VL: EIVMTQSPATLSVSQGERATLSCRASQSVGSDLAWYQQKPGQAPRLLIYDASARATDIPARFSGSGSETEFTLTISSLQSEDFAVYYCQHYSDWRALTFGGGTKVEIKR
notes: VH/VL tied via antigen in summary, not by name in this stretch
B1: the binding result in [1] is listed as “binds”.

B2: TSAR1006 (antibody, V domains shown)
VH: QVQLVQSGTEVKKPGASVKVSCKASGYRFTSNGISWVRQAPGQGLQWMGWISTDSGNTNYAQSFQGRVTLTRDTSTNTAYLELRRLRSEDTAVYYCARDKSWYFDYWGQGTLVSVSS
VL: SYELTQPPSVSVSPGQTARITCSGDALPKKYVFWYQQRSGQAPVLVIYEDSKRPSGIPDRFSGSSSGTLATLTISGAQVEDEADYYCYSTDTIGNWVFGGGTRLTVL
notes: as for B1
For B2, the binding result in test [2] and in test [3] was “binds” each time.

B3: TSAR1005 (antibody, V domains shown)
VH: QVQLVESGGGVVQPGRSLRLSCVASGFTFSNYAMHWVRQAPGKGLEWVAVIWYDGSNEYYRDSVEGRFTISRDSSKNTLYLLVNSLRAEDTAVYYCARGNGPKSGKYSDFDYWGQGTLVTVSS
VL: DVVMTQSPLSLPVTLGQAASISCRSSQSLVYSDGNTYLNWFQQRPGQSPRRLIYKVSNRESGVPDRFSGSGSGTDFTLQISRVEAEDVGIYYCMQGAHWPPITFGQGTRLEIKR
notes: as for B1
Regarding B3, the binding result in test [4], in test [5] and in test [6] was “binds” throughout.

B4: TSTO1002 (antibody, V domains shown)
VH: EVQLVESGGGLVKPGGSLRLSCAASGFTFSNAWMNWVRQTPGKGLEWVGRIKTKTDGGTTDYAEPVKGRFTISRDDSKNTLYLQMNSLKTEDTAVYYCTRGAVADYWGQGTQVTVSS
VL: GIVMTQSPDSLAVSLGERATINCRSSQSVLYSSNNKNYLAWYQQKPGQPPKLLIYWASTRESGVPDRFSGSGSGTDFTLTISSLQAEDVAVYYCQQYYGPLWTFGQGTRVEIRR
notes: as for B1
On to B4, for which the binding result in test [7] is on record as “binds”.

B5: TSAR1003 (antibody, V domains shown)
VH: QLQLQESGPGLVKPSETLSLTCTVSGVSIGTSSYYWGWIRQPPAKGLEWIGSIYYSGSTYYNPSLKNRVTISVDTSKNHFSLKLSSVTAADTAVYYCARHRTGQYYYNSWGQGTLVTVSS
VL: SSELTQDPAVSVALGQTVRITCQGDSLRTDYATWYQQKPGQAPILVFYGEDNRPSGIPDRFSGSSSGNTASLTITGAQAEDEADYYCNSRDSSGHHWVFGGGTKLTVL
notes: as for B1
B5: the binding result in test [8] is “binds”.

B6: TBRE1007 (antibody, V domains shown)
VH: QVQLQESGPGLVRPSETLSLTCDVSGYLISSGYYWGWVRQPPGKGLEWIGSVYHSGNAYYNPSLKGRVTMSVDTSKNQFSLKLTSVAAEDTAVYYCAREHRSGYQRYWGQGTLVTVSS
VL: IQMTQSPSSLSASVGDRVTITCRASQAIANSLAWYQQRPGKAPKLLIYAASSLESGVPSRFSGSGSGTDYTLTISSLQPEDFATYYCQQYYINPRTFGQGTKVEIKR
notes: VH/VL only
As for B6, the binding result in test [9] and in test [10] was “binds” throughout.

B7: TSAR1001 (antibody, V domains shown)
VH: EVQLVESGGGMVQPGESLRLSCAASGFDFTSYWMAWVRQAPGKGLEWVANMNADGSEKHYVDSVKGRFSISRDNAKKLLFLQMNSLTVDDTGVYYCARDEGRREGAWGQGTQVIVSA
VL: EIVLTQSPATLSFSPGDRATLSCRASQNINRFLAWYQQKPGQTPRLLIYDASTRATGIPARFSGSGSGTDFSLIISSLEPEDFAIYYCQQRNNWPITFGPGTKVDVK
notes: as for B1
For the molecule B7, in [11], the binding result was “binds”.

B8: TPRO1002 (antibody, V domains shown)
VH: EVQLVESGGGVIKPGGSLKLSCEGSGFTLDDYVMHWVRQAPGKGLEWISSISGDGTRTYYADSVKGRFTISRNNGKNSLYLQMDSLRREDTALYYCAKDARLAYYGMDVWGQGTTVTVSS
VL: QSALTQPASVSGSPGQSITISCTGTSSDIGGYDLVSWYQHHPGKAPKLVISEGSKRPSGVSNRFFGSKSGNTASLTISGLQAEDEADYYCCSFTGTSTFVFGTGTKVTVL
notes: as for B1
Take B8: the binding result in test [12], in test [13] and in test [14] was “binds” throughout.

B9: TREC1003 (antibody, V domains shown)
VH: QVQLVQSGSEVKKPGASVRLACKTSGYTFSNYGVSWVRQGPGRGLEWLGWISGYNGRTHSADKFRDRVTLTTDTSTTTVYVDLKNLTSDDTAVYYCARVGTSHWYSDSWGQGTLVTVSS
VL: QSVLTQPPSVSGAPGQRVTISCAGSYSNIGAGYDVHWYRQLPGTAPTLLIYSNNNRPSGVSDRFSGSKSGTSASLAITGLQAEDEADYYCQSFDSSLSRSVFGTGTKVTVL
notes: as for B1
Regarding B9, in test [15], the binding result was “binds”.
